Assay: sedimentation equilibrium AUC, self-association, 25 C

pancreatic peptide YY (PYY) showed a % monomer at 30 µM of 94%.

Reference: patent publication US20100273722
